What was measured:
[1] = system: Human dendritic cells; experiment: Macropinocytosis in dendritic cells, FITC-dextran uptake; assay type: cell-based; conditions: expression in human dendritic cells
Experimental: (§1) FIG. 16—DLC1 is required for macropinocytosis in dendritic cells. Human dendritic cells were plated on cover sips in 6-well tissue culture plates, transfected with RFP-DLC1 wild type or DLC1-1-66 mutant lacking Pak1 binding and phosphorylation sites. After 12 hours, FITC-dextran was added to the culture medium for 20 min and cells were fixed and stained with Topro-3 (a DNA dye) and analyzed by confocal microscopy for RFP-DLC1 (red) or RFP-DLC1-1-66 (red) and FITC-dextran (green). White arrows point to RFP-DLC1-1-66 transfected cells and red arrows point to cells transfected with RFP-DLC1.
as §1, with “Human” for “FIG. 16—DLC1 is required for macropinocytosis in dendritic cells. Human”, “slips” for “sips”

[2] = system: SKBR-3 cells; experiment: Pak1-mediated macropinocytosis, vesicle formation by confocal microscopy; assay type: cell-based, human
Experimental: FIG. 3—Requirement of DLC1/PIN in Pak1 mediated macropinocytosis. SKBR-3 cells were cotransfected with RFP-DLC1/PIN and GFP-Pak1 (upper panel), RFP-DLC1/PIN-S88A, and GFP-Pak1 (middle panel) and RFP-DLC1-1-66, and GFP-Pak1 (lower panel). Vesicle formation and localization of GFP and RFP proteins were analyzed by confocal microscopy. Ten randomly selected fields were analyzed for each condition. The experiment was repeated twice with similar results. Quantitation of vesicles formation was done using the following scoring system. −, cells containing 0–9 vesicles; +, cells containing 10–20 vesicles; and ++, cells containing >20 vesicles.
Requirement of DLC1/PIN in Pak1 mediated macropinocytosis. […] The inventors have used the fluorescein isothiocyanate (FITC)-labeled Dextran as a marker of endocytosis using a well-established dextran beads uptake assay (Dharmawardhane et al., 2000). […]
SK-BR3 cells were cotransfected with RFP-DLC1 and GFP-Pak1 (upper panel), RFP-DLC1-S88A and GFP-Pak1 (middle panel), and RFP-DLC8-1-66 and GFP-Pak1 (bottom panel). Vesicle formation and localization of GFP and RFP proteins were analyzed by confocal microscopy. Ten randomly selected fields were analyzed for each condition. […]

[3] = system: ER transactivation (ERE-luc); experiment: ERE-luc transactivation assay; assay type: cell-based, human; conditions: compared to the wild type DLC1
Experimental: MCF-7/DA-Pak1 cells were transfected with ERE-luc, treated with or without Dox for 24 h and then with or without E2 (10^−9M) and/or Tam (10^−8M) for 24 h, and ERE-luc activity was measured. […] FIG. 20D: MCF-7/TAM-Sen and MCF-7/TAMR1 cells were transfected with ERE-luc and treated with E2 or Tam for 24 h and ERE-luc activity was measured. […] FIG. 20L: Ishikawa cells were cotransfected with Pak1 siRNA control or Pak1 siRNA wt and treated with or without Tam (10^−8M) for 24 h and ERE-luc activity was measured.
Ishikawa and MCF-7/TAMR1 cells were transfected with control or Pak1 siRNA for 48 h and then with ERE-luc for 24 h and treated with E2 (10^−9M) for 24 h and ERE-luc activity was measured. […] Ishikawa cells were treated with control or and Pak1 and DLC siRNA for 48 h and then transfected with ERE-luc and treated with Tam (10^−8M) for 24 h and ERE-luc activity was measured.

[4] = system: DLC1 promoter; experiment: DLC1 promoter luciferase reporter; assay type: cell-based, human; conditions: MCF-7 cells, expression of inhibitor
Experimental: FIGS. 21A–21J—Estrogenic signals upregulate DLC1 expression via Pak1 pathway. FIG. 21A: DLC1 upregulation by E2 or Tam. MCF-7/Tam-sen, MCF-7/TAMR1 and Ishikawa cells were treated with E2 (10^−9M) or Tam (10^−9M) for 24 h, and cell lysates were assayed for DLC1 and Pak1 protein expression. FIG. 21B: Upregulation of DLC1 mRNA in MCF-7 cells treated with different doses of E2 for 24 h. FIG. 21C: Effect of different periods of E2 treatment and cycloheximide (CHX) and Actinomycin D (ACTD) treatment on the ability of E2 to upregulate DLC1 mRNA in MCF-7 cells. FIG. 21D: DLC1 mRNA and protein levels in MCF-7/DA-Pak1 cells by Northern and Western blotting. FIG. 21E: DLC1 mRNA and protein levels in MCF-7/DN-Pak1 cells by Northern and Western blotting. FIG. 21F: Downregulation of DLC1 protein expression in MCF-7 cells treated with Pak1-siRNA for 24 h. FIG. 21G: Modulation of DLC1 promoter (1245 bp) luc activity by the expression of wtPak1 or DN-Pak1. MCF-7 cells were transfected with DLC1-luc and transfected with either wtPak1 or Pak1 inhibitor 83-149 and luc activity was measured after 24 h. FIG. 21H: Upregulation of DLC1 promoter luc activity following pak1 induction in MCF-7/DA-Pak 1 cells. FIG. 21I: Downegulation of DLC1 promoter luc activity in MCF-7/DN-pak1 cells. […]

[5] = system: DLC1/PIN; experiment: In vivo 32P-orthophosphate labeling and immunoprecipitation of T7-DLC1/PIN; assay type: cell-based, human; conditions: MCF-7 cells, coexpression with T7-DLC1/PIN
Experimental: FIGS. 2A–2G—MapDLC1/PINg of interaction domains of Pak1 and DLC1/PIN. FIG. 2A: Identification of Pak1 domains that interact with DLC1/PIN. GST-Pak1 fusion proteins containing wild-type (amino acids 1–545), kinase domain (amino acids 270–545), N-terminal domain (amino acids 1–132), PIX binding domain (amino acids 132–270), Nck-binding domain (amino acids 1–75), Cdc42/Rac-interacting (CRIB) domain (amino acids 52–132), and auto-inhibitory domain (amino acids 75–149) were incubated with in vitro translated DLC1/PIN (amino acids 1–89), and binding was analyzed by GST pull-down assay. FIG. 2B: Identification of the DLC1/PIN region that is involved in the binding of Pak1. GST-fusions of various lengths of DLC1/PIN were used in the GST pull-down assay using ^35S-labelled Pak1 (amino acids 1–545). FIGS. 2C–2G—Pak1 phosphorylation of DLC1/PIN. FIG. 2C: In vitro kinase assay using GST-DLC1/PIN as a substrate and purified bacterially expressed Pak1 as an enzyme. MBP was used as a positive control. FIG. 2D: ZR75R cells stably expressing T7-DLC1/PIN were labeled in vivo with ^32P-orthophosphate, serum starved, treated with EGF or HRG, and immunoprecipitated and phosphorylation status of DLC1/PIN was visualized by autoradiography. […] Cells were metabolically labeled with ^32P orthophosphate, treated with or without EGF (1 nM) and phosphorylation of T7-DLC1/PIN was analyzed by immunoprecipitation. […]

B1: DLC1-66 peptide: SEQ ID NO:11; DLC1/PIN mutant, amino acids 1–66, lacking the C-terminal 23 amino acids (Pak1 binding and phosphorylation sites) (protein, listed as Homo sapiens)
chain: MCDRKAVIKNADMSEEMQQDSVECATQALEKYNIEKDIAAHIKKEFDKKYNPTWHCIVGRNFGSYV
[1]
  macropinocytic functions: blocks macropinocytic functions
[2]; cotransfected with GFP-Pak1
  transfected cells in which formation of vesicles was completely blocked: more than 80%
[2]; expression in human breast cancer cell line SKBR3
  macropinocytic functions: blocks macropinocytic functions

B2: DLC1 1-68R mutant: DLC1 mutant lacking amino acids 67–89, behaves as a dominant-negative (protein, UniProt P63167 1-66, looked up, fragment)
chain: B1 chain
[3]
  ERE-transactivation in the presence of tamoxifen: reduced ERE-transactivation

B3: […] Pak1 auto inhibitory fragment used as an inhibitor (Pak1 amino acids 83–149) (protein, UniProt Q13153 83-149, looked up, fragment)
chain: HTIHVGFDAVTGEFTGMPEQWARLLQTSNITKSEQKKNPQAVLDVLEFYNSKKTSNSQKYMSFTDKS
[4]
  DLC1 promoter activity: suppressed
[5]
  EGF-stimulated DLC1/PIN phosphorylation: completely blocked

— patent publication US7067633B2, “Targeting cellular entry, cell survival, and pathogenicity by dynein light chain 1/PIN in human cells” (Board of Regents, The University of Texas System, priority 2003, dated 2006)
